B1: HsCNNM4 extracellular domain A149S (Jalili syndrome mutation) (domain or fragment, human, UniProt Q6P4Q7 44-175, looked up)
chain: GTIVGMRLASCNKSCGTNPDGIIFVSEGSTVNLRLYGYSLGNISSNLISFTEVDDAETLHKSTSCLELTKDLVVQQLVNVSRGNTSGVLVVLTKFLRRSESMKLYSLCTRAQPDGPWLKWTDKDSLLFMVEE
B2: HsCNNM4 extracellular domain N85D (Jalili syndrome mutation) (domain or fragment, human, UniProt Q6P4Q7 44-175, looked up)
chain: GTIVGMRLASCNKSCGTNPDGIIFVSEGSTVNLRLYGYSLGDISSNLISFTEVDDAETLHKSTSCLELTKDLVVQQLVNVSRGNTSGVLVVLTKFLRRSESMKLYALCTRAQPDGPWLKWTDKDSLLFMVEE
B3: HsCNNM4 extracellular domain (residues 44–175), wild type (domain or fragment, human, UniProt Q6P4Q7 44-175, looked up)
chain: GTIVGMRLASCNKSCGTNPDGIIFVSEGSTVNLRLYGYSLGNISSNLISFTEVDDAETLHKSTSCLELTKDLVVQQLVNVSRGNTSGVLVVLTKFLRRSESMKLYALCTRAQPDGPWLKWTDKDSLLFMVEE
B4: HsCNNM4 extracellular domain (residues 44–175) R50A (domain or fragment, human, UniProt Q6P4Q7 44-175, looked up)
chain: GTIVGMALASCNKSCGTNPDGIIFVSEGSTVNLRLYGYSLGNISSNLISFTEVDDAETLHKSTSCLELTKDLVVQQLVNVSRGNTSGVLVVLTKFLRRSESMKLYALCTRAQPDGPWLKWTDKDSLLFMVEE
B5: HsCNNM4 extracellular domain M145T (Jalili syndrome mutation) (domain or fragment, human, UniProt Q6P4Q7 44-175, looked up)
chain: GTIVGMRLASCNKSCGTNPDGIIFVSEGSTVNLRLYGYSLGNISSNLISFTEVDDAETLHKSTSCLELTKDLVVQQLVNVSRGNTSGVLVVLTKFLRRSESTKLYALCTRAQPDGPWLKWTDKDSLLFMVEE
B6: HsCNNM4 extracellular domain E95Q (Jalili syndrome mutation) (domain or fragment, human, UniProt Q6P4Q7 44-175, looked up)
chain: GTIVGMRLASCNKSCGTNPDGIIFVSEGSTVNLRLYGYSLGNISSNLISFTQVDDAETLHKSTSCLELTKDLVVQQLVNVSRGNTSGVLVVLTKFLRRSESMKLYALCTRAQPDGPWLKWTDKDSLLFMVEE

Molecular target: EgCNNM4 extracellular domain (residues 25–153), wild type (Echinococcus granulosus)
Assay: AUC

Stoichiometry N, 2:
EgCNNM4 extracellular domain (residues 25–153), wild type (domain or fragment)

Molecular target: the molecule itself
Assay: AUC

Stoichiometry N, 2:
B1
B2
B3
B4
B5
B6
